Experimental data reported in patent publication US20220119534A1 (DRAGONFLY THERAPEUTICS, published 2022).

Key:
[1] = biological target: T1, Human CLEC12A-His (human, UniProt Q5QGZ9 65-265); assay: SPR Biacore 8K 37 C; TriNKET captured on anti-hFc chip, hCLEC12A-His as analyte; 1:1 fit; control, n=4
T1 construct: Recombinant soluble protein made in house (Dragonfly Tx); The hCLEC12A spot of the HuProt array is written under this molecule as well; also called hCLEC12A-His; hCLEC12A; not shown: His tag
T1 sequence: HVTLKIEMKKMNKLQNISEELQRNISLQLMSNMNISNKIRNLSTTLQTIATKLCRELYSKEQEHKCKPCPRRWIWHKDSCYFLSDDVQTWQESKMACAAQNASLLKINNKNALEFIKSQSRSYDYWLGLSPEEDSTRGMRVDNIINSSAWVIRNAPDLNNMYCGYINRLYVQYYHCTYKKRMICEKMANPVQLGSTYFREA

[2] = biological target: T2, mFc-hNKG2D (human, UniProt P26718 73-216); assay: SPR Biacore 8K 37 C; mFc-hNKG2D captured on anti-mFc chip, TriNKET as analyte; 1:1 kinetic fit; after 2 wks 40 C at pH 5.0
T2 construct: extracellular domain; Made in house (Dragonfly Tx); the order of tag and ECD follows the name mFc-hNKG2D; also called mFc-tagged human NKG2D; not shown: mouse Fc tag
T2 sequence (looked up): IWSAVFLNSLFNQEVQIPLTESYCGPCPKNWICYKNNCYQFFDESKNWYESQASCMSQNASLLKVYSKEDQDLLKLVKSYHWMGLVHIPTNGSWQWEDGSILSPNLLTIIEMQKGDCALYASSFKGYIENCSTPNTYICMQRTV

[3] = biological target: T1, Human CLEC12A-His; assay: SPR Biacore 8K 37 C; TriNKET captured on anti-hFc chip, hCLEC12A-His as analyte; 1:1 fit; after 4 wks 40 C in CST pH 7.0, n=2
Description: Briefly, human Fc specific antibodies were covalently immobilized at a density ˜8000-10000 resonance units (RU) on carboxy methyl dextran matrix of a CM5 biosensor chip via amine-coupling chemistry to create an anti-hFc IgG chip. […] Association was monitored for 300 seconds and dissociation was monitored for 600 seconds. Surfaces were regenerated between cycles with three pulses of 10 mM glycine-HCl, pH 1.7 injected for 20 seconds at 100 μL/min. HBS-EP+ (1×) with 0.1 mg/mL BSA buffer was used throughout the experiment. Data were analyzed using Biacore 8K Insight evaluation software (GE Healthcare).

[4] = biological target: T1, Human CLEC12A-His; assay: SPR Biacore 8K 37 C; TriNKET captured on anti-hFc chip, hCLEC12A-His as analyte; 1:1 fit; after 4 wks 25 C in CST pH 7.0, n=2

Kd [1]: 0.638 nM | koff [1]: 0.000433 s⁻¹ | kon [1]: 678000 M⁻¹ s⁻¹ | Kd [2]: 675 nM | koff [2]: 0.127 s⁻¹ | kon [2]: 188000 M⁻¹ s⁻¹ | Kd [3]: 0.86 nM | koff [3]: 0.000674 s⁻¹ | kon [3]: 784000 M⁻¹ s⁻¹ | Kd [4]: 0.91 nM | koff [4]: 0.000719 s⁻¹ | kon [4]: 788000 M⁻¹ s⁻¹
B1: F3'-1602 TriNKET (bispecific antibody, human IgG1, kappa)
chain: QLQLQESGPGLVKPSETLSLTCTVSGFSLTNYGLHWIRQPPGKCLEWIGVIWSGGKTDYNPSLKSRVTISKDTSKNQFSLKLSSVQAADTAVYYCAKYDYDDSLDYWGQGTLVTVSSGGGGSGGGGSGGGGSGGGGSDIQMTQSPSSLSASVGDRVTITCHASQNINFWLSWYQQKPGKAPKLLIYEASNLHTGVPSRFSGSGSGTRFTLTISSLQPEDIATYYCQQSHSYPLTFGCGTKLEIKGSDKTHTCPPCPAPELLGGPSVFLFPPKPKDTLMISRTPEVTCVVVDVSHEDPEVKFNWYVDGVEVHNAKTKPREEQYNSTYRVVSVLTVLHQDWLNGKEYKCKVSNKALPAPIEKTISKAKGQPREPRVYTLPPCRDELTKNQVSLTCLVKGFYPSDIAVEWESNGQPENNYKTTPPVLVSDGSFTLYSKLTVDKSRWQQGNVFSCSVMHEALHNHYTQKSLSLSPG
heavy: EVQLVESGGGLVKPGGSLRLSCAASGFTFSSYSMNWVRQAPGKGLEWVSSISSSSSYIYYADSVKGRFTISRDNAKNSLYLQMNSLRAEDTAVYYCARGAPIGAAAGWFDPWGQGTLVTVSSASTKGPSVFPLAPSSKSTSGGTAALGCLVKDYFPEPVTVSWNSGALTSGVHTFPAVLQSSGLYSLSSVVTVPSSSLGTQTYICNVNHKPSNTKVDKKVEPKSCDKTHTCPPCPAPELLGGPSVFLFPPKPKDTLMISRTPEVTCVVVDVSHEDPEVKFNWYVDGVEVHNAKTKPREEQYNSTYRVVSVLTVLHQDWLNGKEYKCKVSNKALPAPIEKTISKAKGQPREPQVCTLPPSRDELTENQVSLTCLVKGFYPSDIAVEWESNGQPENNYKTTPPVLDSDGSFFLYSWLTVDKSRWQQGNVFSCSVMHEALHNHYTQKSLSLSPG
light: DIQMTQSPSSVSASVGDRVTITCRASQGISSWLAWYQQKPGKAPKLLIYAASSLQSGVPSRFSGSGSGTDFTLTISSLQPEDFATYYCQQGVSFPRTFGGGTKVEIKRTVAAPSVFIFPPSDEQLKSGTASVVCLLNNFYPREAKVQWKVDNALQSGNSQESVTEQDSKDSTYSLSSTLTLSKADYEKHKVYACEVTHQGLSSPVTKSFNRGEC
notes: Trispecific F3' format: CLEC12A scFv-Fc paired with NKG2D Fab-Fc; Stressed and control samples of the stability studies are the same molecule; also called AB0237
